Data as given in US20060204979A1 (INVITROGEN, published 2006).
Residue numbers refer to the chain shown, from its start. Numbers in names are those of the source.

B1: Fos (leucine zipper region), negative control prey with Krev1 (other, UniProt P01100 132-211, looked up, not shown: large carriers)
chain: LSPEEEEKRRIRRERNKMAAAKCRNRRRELTDTLQAETDQLEDEKSALQTEIANLLKEKEKLEFILAAHRPACKIPDDLG
notes: domain: leucine zipper region; the only Fos ORF it describes is the leucine zipper region
B2: RalGDS RA alleles 3, 8, 27, 30, 35 and 36, L65P (other, not shown: small tags and cut ends)
chain: YNQQVGDCCIIRVSLDVDNGNMYKSILVTSQDKAPTVIRKAMDKHNLDEDEPEDYEPLQIISEDHKLKIPENANVFYAMNSAANYDFILKKR
notes: Six clones with the same amino acid change; also called clone 3; clone 8
B3: RalGDS RA allele 2, L66P (other, not shown: small tags and cut ends)
chain: B2 chain with P57L, L58P
notes: also called clone 2
B4: RalGDS RA alleles 6 and 15, K52E (other, not shown: small tags and cut ends)
chain: B2 chain with K44E, P57L
notes: also called clone 6 (RalGDS screen); clone 15
B5: RalGDS RA alleles 17 and 19, Y31C (other, not shown: small tags and cut ends)
chain: B2 chain with Y23C, P57L
notes: also called clone 17; clone 19
B6: RalGDS ras association (RA) domain expressed from pEXP22/RalGDS as GAL4 AD fusion (other, UniProt Q03386 767-864, looked up, not shown: large carriers)
chain: SSSLPLYNQQVGDCCIIRVSLDVDNGNMYKSILVTSQDKAPTVIRKAMDKHNLDEDEPEDYELLQIISEDHKLKIPENANVFYAMNSAANYDFILKKR
notes: domain: ras association domain; Prey; also called RalGDS wild type
B7: RalGDS RA allele 16, R20M (other, not shown: small tags and cut ends)
chain: B2 chain with R12M, P57L
B8: RalGDS RA allele 23, M50V (other, not shown: small tags and cut ends)
chain: B2 chain with M42V, P57L
B9: RalGDS RA allele 4, I77T (other, not shown: small tags and cut ends)
chain: B2 chain with P57L, I69T
B10: RalGDS RA allele 22, Q67R (other, not shown: small tags and cut ends)
chain: B2 chain with P57L, Q59R

What follows are binders tested against T1, Krev1 (full-length ORF) expressed from pEXP32/Krev1 as GAL4 DBD fusion (rat, UniProt P04386 1-147; P62836 1-184) (assay: yeast two-hybrid negative control, HIS3/3-AT reporter).
T1 construct: Bait; also called Rap1A
Description: Yeast transformations were performed according to MaV203 competent yeast cell protocol (Invitrogen, Carlsbad, Calif.) using Gateway destination vectors pDEST32 and pDEST 22 (Invitrogen.com). Briefly, 25 μl cells are mixed with 1 μg bait construct (pEXP32-Bait ORF) and 1 μg prey allele library (EXP22-Prey allele library). pEXP32 is an expression construct in which a partner sequence (“bait”) is fused to the GAL4 DBD. pEXP22 is an expression construct in which a target sequence (“prey”) is fused to the GAL4 AD. Next, 180 μl LiAc/PEG solution is added and tube is inverted several times to mix. Incubate at 30° C. for 30 min, add 10 μl DMSO and heat shock at 42° C. for 10 min. Spin down cells at 1800 rpm, resuspend in 1 ml dH2O, serial dilute to 10⁻². Plate 100 μl of dilutions 10⁻¹ and 10⁻² on CSM-LW, and 100 μl undiluted and dilution 10⁻¹ on CSM-LW+5-FOA. Incubate plates at 30° C. for 3-5 five days. Patch colonies from CSM-LW+5-FOA onto CSM-LW (along with positive and negative control patches) and incubate at 30° C. for 2 days. Replica plate onto CSM-LW and CSM-LWH+3-AT (10 mM, 25 mM, 50 mM and 100 mM). […]
In creating the allele library for RalGDS, it was calculated using the guidelines in Materials and Methods that 200,000 individual Kan⁺ clones was sufficient to provide good library representation for the 296 bp ORF. […]
B1: no binding.

Each binder was assayed against T1, Krev1 (full-length ORF) expressed from … (assay: yeast two-hybrid; no growth under histidine selection with 10 mM 3-AT, no URA3 activation).
Description: To confirm the initial mutant phenotypes, plasmid DNA from the 17 mutant alleles and 6 wild type clones was co-transformed into MaV203 with pEXP32-Krev1. Transformants were tested for their ability to activate the URA3 reporter, as well as the HIS3 reporter in the presence of 10 mM, 25 mM, 50 mM or 100 mM 3-AT. All six wild type clones (7, 9, 11, 12, 20 and 21) produced strong URA⁺ and HIS3/100 mM 3-AT⁺ phenotypes, except clone 20. […] Clone 4 (I77T) and 23 (M50V) were the only mutants displaying a strong growth phenotype in the presence of 100 mM 3-AT.
B2: no binding.
B3: no binding.
B4: no binding.
B5: no binding.

Each binder was assayed against T1, Krev1 (full-length ORF) expressed from … (assay: yeast two-hybrid (ProQuest)).
B6: binds.

These binders were tested against T1, Krev1 (full-length ORF) expressed from … (assay: cell-based or functional assay).
For B7, the “3-AT Phenotype (concentration of 3-AT required to inhibit growth under histidine selection, HIS3 reporter)” value was 50 mM.
For B8, the “3-AT Phenotype (concentration of 3-AT required to inhibit growth under histidine selection, HIS3 reporter)” value was greater than 100 mM.
For B2, the “3-AT Phenotype (concentration of 3-AT required to inhibit growth under histidine selection, HIS3 reporter)” value was 10 mM.
B3 was tested, and the “3-AT Phenotype (concentration of 3-AT required to inhibit growth under histidine selection, HIS3 reporter)” value was 10 mM.
In the case of B9, the “3-AT Phenotype (concentration of 3-AT required to inhibit growth under histidine selection, HIS3 reporter)” value is reported as greater than 100 mM.
In the case of B4, the “3-AT Phenotype (concentration of 3-AT required to inhibit growth under histidine selection, HIS3 reporter)” value is reported as 10 mM.
B10 was tested, and the “3-AT Phenotype (concentration of 3-AT required to inhibit growth under histidine selection, HIS3 reporter)” value was 100 mM.
For B5, the “3-AT Phenotype (concentration of 3-AT required to inhibit growth under histidine selection, HIS3 reporter)” value was 10 mM.
